# From patent publication US20230331796A1
# Biological target: single chain C1q fusion polypeptide according to formula I (TAG-X1-C1qA-X2-C1qB-X3-C1qC-X4) (human)
# Test: C1q affinity chromatography, immobilised fusion polypeptide, linear NaCl gradient in 20 mM HEPES pH 7.4
# single chain C1q fusion polypeptide according to formula I (TAG-X1-C1qA-X2-C1qB-X3-C1qC-X4) (human), sequence (main, as listed by the source): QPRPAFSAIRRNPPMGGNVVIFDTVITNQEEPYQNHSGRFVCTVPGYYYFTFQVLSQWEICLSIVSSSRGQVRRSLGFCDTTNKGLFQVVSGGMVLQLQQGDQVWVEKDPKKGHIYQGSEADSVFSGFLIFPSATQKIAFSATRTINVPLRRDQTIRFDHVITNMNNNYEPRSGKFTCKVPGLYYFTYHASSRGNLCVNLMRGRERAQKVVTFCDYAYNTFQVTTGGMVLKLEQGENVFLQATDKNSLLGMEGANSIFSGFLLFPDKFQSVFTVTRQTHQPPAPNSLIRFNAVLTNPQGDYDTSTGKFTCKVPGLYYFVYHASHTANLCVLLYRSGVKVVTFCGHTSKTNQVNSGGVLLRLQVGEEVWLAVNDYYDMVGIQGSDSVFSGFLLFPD
substance,measurement,value
Briakinumab (antibody),retention time,30.7 min
Ustekinumab (antibody),retention time,39.1 min
